In this test the target is T1, ALFA-tagged target immobilised for SPR with NbALFA (TST-NEDD8-ALFA or GFP-ALFA) (synthetic (designed ALFA-tag)).
T1 chain: SRLEEELRRRLTE
The experiment in a line: SPR.

This passage reports Kd results from publication doi:10.1101/640771 (bioRxiv, 2019).

B1: NbALFA (non-tagged) (VHH)
VHH: EVQLQESGGGLVQPGGSLRLSCTASGVTISALNAMAMGWYRQAPGERRVMVAAVSERGNAMYRESVQGRFTVTRDFTNKMVSLQMDNLKPEDTAVYYCHVLEDRVDSFHDYWGQGTQVTVSS
Consider B1, for which the Kd was around 0.026 nM.
